Experimental data taken from EP1379283B1, “IDENTIFICATION OF TARGET-SPECIFIC FOLDING SITES IN PEPTIDES AND PROTEINS” (Palatin Technologies, Inc., priority 2000, dated 2002).
Square brackets hold non-standard residues; d marks the D form. Ends that are not written are not given here. dChg = N[C@@H](C(=O)O)C1CCCCC1; Chg = N[C@H](C(=O)O)C1CCCCC1; Orn = NCCC[C@H](N)C(=O)O; Dap = NC[C@H](N)C(=O)O

Assays:
[1] = target: T1, vasopressin-1 receptor (Rattus norvegicus, UniProt P30560); experiment: vasopressin-1 receptor binding, 3H-vasopressin-1 antagonist, cell membranes from rat liver
T1 construct: cell membranes prepared from rat liver; from tissue; host or cells: rat liver membranes
T1 sequence (P30560 whole entry): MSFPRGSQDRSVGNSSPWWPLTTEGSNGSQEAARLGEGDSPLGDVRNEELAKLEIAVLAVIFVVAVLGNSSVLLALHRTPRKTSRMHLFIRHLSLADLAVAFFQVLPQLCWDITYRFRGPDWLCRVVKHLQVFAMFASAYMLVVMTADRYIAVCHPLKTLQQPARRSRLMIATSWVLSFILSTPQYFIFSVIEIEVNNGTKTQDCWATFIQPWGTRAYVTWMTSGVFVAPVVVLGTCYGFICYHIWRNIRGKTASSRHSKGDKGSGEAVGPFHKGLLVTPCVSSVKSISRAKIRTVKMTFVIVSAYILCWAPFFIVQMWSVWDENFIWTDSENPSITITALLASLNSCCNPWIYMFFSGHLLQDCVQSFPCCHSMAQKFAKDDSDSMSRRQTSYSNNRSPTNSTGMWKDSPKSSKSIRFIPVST
Protocol: The screening of compounds for vasopressin-1 receptor was performed using cell membranes prepared from rat liver. The assay was essentially performed as described above for the oxytocin receptor assay. In this assay 2-4 nM ^3H-vasopressin-1 antagonist (obtained from Perkin Elemer- NEN Life Sciences) was used as the radiotracer and Arg^8-vasopressin (1 µM final concentration in the assay) was used to determine non-specific binding. The assay was performed in triplicates. Activity profile for the test compounds were generated by their ability to inhibit specific binding of the radiotracer to its receptor.

[2] = target: T2, oxytocin receptor (Rattus norvegicus, UniProt P70536); experiment: oxytocin receptor binding, 3H-oxytocin, cell membranes from rat uterus; settings: for % Inhibition at 1 µM Oxytocin Receptor: rat uterus membranes, 3H-oxytocin; for activity at oxytocin receptor: conclusion from Table 30
T2 construct: cell membranes prepared from rat uterus; from tissue; host or cells: rat uterus membranes
T2 sequence (P70536 1-388): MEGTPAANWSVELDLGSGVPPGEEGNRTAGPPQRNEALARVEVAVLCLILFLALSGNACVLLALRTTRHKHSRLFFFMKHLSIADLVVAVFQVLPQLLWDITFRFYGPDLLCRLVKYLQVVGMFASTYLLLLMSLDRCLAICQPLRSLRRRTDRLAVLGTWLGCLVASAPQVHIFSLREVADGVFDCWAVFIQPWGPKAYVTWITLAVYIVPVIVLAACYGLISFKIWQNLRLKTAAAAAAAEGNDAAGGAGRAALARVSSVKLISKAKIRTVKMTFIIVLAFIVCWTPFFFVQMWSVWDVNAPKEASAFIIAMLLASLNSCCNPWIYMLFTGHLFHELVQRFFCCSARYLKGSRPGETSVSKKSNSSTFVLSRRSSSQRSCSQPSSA
Protocol: The screening of metallopeptides for binding to oxytocin receptor was done using cell membranes prepared from rat uterus. […] The membrane preparations (10 - 50 µg/well) were incubated with 412-800 pM ^3H-oxytocin in HEPES Buffer containing 0.2% bovine serum albumin along with a test compound (1 µM final assay concentration) for 2 hours at 4° C. Non-specific binding was determined by addition of 10^-6 M oxytocin instead of the test compound. After incubation, the membranes were filtered and washed three times with ice-cold PBS. The membranes were air-dried and punched directly into scintillation vials. After addition of the scintillation cocktail, the vials were capped and gently shaken for 12 hours to dissolve the radioactivity contained in the filters. The vials were then read for tritium counts in a scintillation counter. Specific binding was determined as the radioactivity in wells containing ^3H-oxytocin alone minus the radioactivity in wells containing 10^-6 M oxytocin. The assay was performed in triplicates. The activity profile for the test compounds were generated by their ability to inhibit specific binding of the radiotracer to its receptor.

[3] = target: T3, uPA receptor (Homo sapiens, UniProt Q03405); experiment: uPA receptor-binding assay using U937 cells and ATF as competitive ligand; settings: for % Inhibition at 1 µM: 1 µM metallopeptide, U937 cells, ATF as competitive receptor binding ligand
T3 construct: endogenous in cells; host or cells: U937 cells
T3 sequence (Q03405 23-335): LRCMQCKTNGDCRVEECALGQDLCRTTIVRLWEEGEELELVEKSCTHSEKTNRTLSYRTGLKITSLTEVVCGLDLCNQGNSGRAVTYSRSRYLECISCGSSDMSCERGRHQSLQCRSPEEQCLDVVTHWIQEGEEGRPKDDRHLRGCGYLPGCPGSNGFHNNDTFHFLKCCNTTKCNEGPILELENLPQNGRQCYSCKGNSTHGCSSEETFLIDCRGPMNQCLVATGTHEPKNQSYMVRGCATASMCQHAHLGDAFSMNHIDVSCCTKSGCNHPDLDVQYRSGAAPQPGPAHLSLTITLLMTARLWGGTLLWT

[4] = Table 29, vasopressin ligand library
[5] = Table 30, oxytocin ligand library

Row | Substance | % Inhibition at 1 µM Vasopressin-1 Receptor [1, 4] [%] | % Inhibition at 1 µM Oxytocin Receptor [2, 4] [%] | % Inhibition at 1 µM Vasopressin-1 Receptor [1, 5] [%] | % Inhibition at 1 µM Oxytocin Receptor [2, 5] [%] | also measured
1 | Pmp-D-Trp-Cys-Ile-Thr-Dap-Ala-Pro-Orn-NH2 | 23 | 0 | – | – | –
2 | Ac-Val-Ser-Cys-Asn-Lys-Tyr-Phe-Ser-Asn-Ile-His-Trp-NH2 (Ac-VSCNKYFSNIHW-NH2; not fully specified (bridges); printed as Ac-Val-Ser-Cys-Asn-Lys-Tyr-Phe-Ser-Asn-Ile-His-Trp-NH2; also: oxorhenium(V) N3S1 metal chelate (X-X-Cys)) [SEQ ID NO:4] | – | – | – | – | % Inhibition at 1 µM [3]: 0.0%
3 | Caca-D-Trp-Ile-Thr-Dap-Ala-Ala-Cys-Orn-NH2 | 0 | 0 | – | – | –
4 | Ac-Val-Ser-Asn-Lys-Tyr-Cys-Phe-Ser-Asn-Ile-His-Trp-NH2 (Ac-VSNKYCFSNIHW-NH2; not fully specified (bridges); printed as Ac-Val-Ser-Asn-Lys-Tyr-Cys-Phe-Ser-Asn-Ile-His-Trp-NH2; also: oxorhenium(V) N3S1 metal chelate (X-X-Cys)) [SEQ ID NO:7] | – | – | – | – | % Inhibition at 1 µM [3]: 18.0%
5 | Caca-D-Trp-Ile-Cys-Thr-Dap-Ala-Pro-Orn-NH2 | 52 | 0 | – | – | –
6 | Ac-Val-Ser-Asn-Lys-Tyr-Phe-Ser-Cys-Asn-Ile-His-Trp-NH2 (Ac-VSNKYFSCNIHW-NH2; not fully specified (bridges); printed as Ac-Val-Ser-Asn-Lys-Tyr-Phe-Ser-Cys-Asn-Ile-His-Trp-NH2; also: oxorhenium(V) N3S1 metal chelate (X-X-Cys)) [SEQ ID NO:9] | – | – | – | – | % Inhibition at 1 µM [3]: 35.0%
7 | Ala-Tyr-Ile-Gln-Asn-Ala-Cys-Pro-Leu-Gly-NH2 (AYIQNACPLG-NH2; not fully specified (bridges); printed as Ala-Tyr-Ile-Gln-Asn-Ala-Cys-Pro-Leu-Gly-NH2; also: oxorhenium(V) N3S1 metal chelate (X-X-Cys)) [SEQ ID NO:153] | – | – | 0 | 2 | –
8 | Caca-D-Trp-Ile-Thr-Dap-Ala-Cys-Ala-Orn-NH2 | 0 | 0 | – | – | –
9 | Ala-Tyr-Ile-Gln-Asn-Ala-Cys-Ala-Leu-Gly-NH2 (AYIQNACALG-NH2; not fully specified (bridges); printed as Ala-Tyr-Ile-Gln-Asn-Ala-Cys-Ala-Leu-Gly-NH2; also: oxorhenium(V) N3S1 metal chelate (X-X-Cys)) [SEQ ID NO:154] | – | – | 0 | 31 | activity at oxytocin receptor [2]: active
10 | Ac-Val-Ser-Asn-Lys-Tyr-Phe-Ser-Asn-Ile-His-Cys-Trp-NH2 (Ac-VSNKYFSNIHCW-NH2; not fully specified (bridges); printed as Ac-Val-Ser-Asn-Lys-Tyr-Phe-Ser-Asn-Ile-His-Cys-Trp-NH2; also: oxorhenium(V) N3S1 metal chelate (X-X-Cys)) [SEQ ID NO:3] | – | – | – | – | % Inhibition at 1 µM [3]: 106.0%; relative potency in uPA receptor binding ([3]; compared with the other metallopeptides of Table 1): most potent
11 | Caca-D-Trp-Ile-Thr-Dap-Ala-Ala-Orn-Cys-NH2 | 23 | 0 | – | – | –
12 | Ac-Val-Ser-Asn-Lys-Tyr-Phe-Ser-Asn-lie-His-Trp-Cys-NH2 [SEQ ID NO:12] | – | – | – | – | % Inhibition at 1 µM [3]: 0.0%
13 | Ac-Val-Ser-Asn-Lys-Tyr-Phe-Ser-Asn-Cys-Ile-His-Trp-NH2 (Ac-VSNKYFSNCIHW-NH2; not fully specified (bridges); printed as Ac-Val-Ser-Asn-Lys-Tyr-Phe-Ser-Asn-Cys-Ile-His-Trp-NH2; also: oxorhenium(V) N3S1 metal chelate (X-X-Cys)) [SEQ ID NO:10] | – | – | – | – | % Inhibition at 1 µM [3]: 32.0%
14 | Ac-Val-Ser-Asn-Lys-Tyr-Phe-Cys-Ser-Asn-Ile-His-Trp-NH2 (Ac-VSNKYFCSNIHW-NH2; not fully specified (bridges); printed as Ac-Val-Ser-Asn-Lys-Tyr-Phe-Cys-Ser-Asn-Ile-His-Trp-NH2; also: oxorhenium(V) N3S1 metal chelate (X-X-Cys)) [SEQ ID NO:8] | – | – | – | – | % Inhibition at 1 µM [3]: 0.0%
15 | Ala-Tyr-Ile-Gln-Asn-Cys-Ala-Pro-Leu-Gly-NH2 (AYIQNCAPLG-NH2; not fully specified (bridges); printed as Ala-Tyr-Ile-Gln-Asn-Cys-Ala-Pro-Leu-Gly-NH2; also: oxorhenium(V) N3S1 metal chelate (X-X-Cys)) [SEQ ID NO:155] | – | – | 0 | – | activity at oxytocin receptor [2]: maximal activity
16 | Caca-D-Trp-Ile-Thr-Cys-Dap-Ala-Pro-Orn-NH2 | 0 | 0 | – | – | –
17 | [dChg][dW]CIT[Dap]AP[Orn]-NH2 | 8 | 0 | – | – | –
18 | Ala-Tyr-Ile-Gln-Asn-Ala-Ala-Leu-Gly-Cys-NH2 (AYIQNAALGC-NH2; not fully specified (bridges); printed as Ala-Tyr-Ile-Gln-Asn-Ala-Ala-Leu-Gly-Cys-NH2; also: oxorhenium(V) N3S1 metal chelate (X-X-Cys)) [SEQ ID NO:150] | – | – | 0 | 0 | –
19 | Caca-D-Trp-Ile-Thr-Dap-Cys-Ala-Pro-Orn-NH2 | 22 | 9 | – | – | –
20 | Ala-Tyr-Ile-Gln-Asn-Ala-Pro-Leu-Gly-Cys-NH2 (AYIQNAPLGC-NH2; not fully specified (bridges); printed as Ala-Tyr-Ile-Gln-Asn-Ala-Pro-Leu-Gly-Cys-NH2; also: oxorhenium(V) N3S1 metal chelate (X-X-Cys)) [SEQ ID NO:149] | – | – | 0 | 6 | –
21 | [Chg][dW]CIT[Dap]AP[Orn]-NH2 | 0 | 0 | – | – | –
22 | Caca-D-Trp-Ile-Thr-Dap-Ala-Cys-Pro-Orn-NH2 | 0 | 0 | – | – | –
23 | Ala-Tyr-Ile-Cys-Gln-Asn-Ala-Pro-Leu-Gly-NH2 (AYICQNAPLG-NH2; not fully specified (bridges); printed as Ala-Tyr-Ile-Cys-Gln-Asn-Ala-Pro-Leu-Gly-NH2; also: oxorhenium(V) N3S1 metal chelate (X-X-Cys)) [SEQ ID NO:157] | – | – | 0 | 0 | –
24 | Ala-Tyr-Ile-Gln-Asn-Ala-Ala-Leu-Cys-Gly-NH2 (AYIQNAALCG-NH2; not fully specified (bridges); printed as Ala-Tyr-Ile-Gln-Asn-Ala-Ala-Leu-Cys-Gly-NH2; also: oxorhenium(V) N3S1 metal chelate (X-X-Cys)) [SEQ ID NO:151] | – | – | 0 | 0 | –
25 | Ala-Tyr-Cys-Ile-Gln-Asn-Ala-Pro-Leu-Gly-NH2 (AYCIQNAPLG-NH2; not fully specified (bridges); printed as Ala-Tyr-Cys-Ile-Gln-Asn-Ala-Pro-Leu-Gly-NH2; also: oxorhenium(V) N3S1 metal chelate (X-X-Cys)) [SEQ ID NO:158] | – | – | 1 | 6 | –
26 | Ala-Tyr-Ile-Gln-Asn-Ala-Ala-Cys-Leu-Gly-NH2 (AYIQNAACLG-NH2; not fully specified (bridges); printed as Ala-Tyr-Ile-Gln-Asn-Ala-Ala-Cys-Leu-Gly-NH2; also: oxorhenium(V) N3S1 metal chelate (X-X-Cys)) [SEQ ID NO:152] | – | – | 1 | 0 | –
27 | Ala-Tyr-Ile-Gln-Cys-Asn-Ala-Pro-Leu-Gly-NH2 (AYIQCNAPLG-NH2; not fully specified (bridges); printed as Ala-Tyr-Ile-Gln-Cys-Asn-Ala-Pro-Leu-Gly-NH2; also: oxorhenium(V) N3S1 metal chelate (X-X-Cys)) [SEQ ID NO:156] | – | – | 0 | 18 | activity at oxytocin receptor [2]: active
